Patent US20220162320A1 (published 2022)

Columns and labels:
[1] = target: T1, HLA-PEPTIDE target G2: HLA-A*01:01_…, recombinant soluble complex (human, enzymatically biotinylated (BirA)); test: BLI
[2] = target: T2, CD3 (reagent of the affinity experiments of Example 18) (UniProt P07766 23-126); test: BLI
T2 chain: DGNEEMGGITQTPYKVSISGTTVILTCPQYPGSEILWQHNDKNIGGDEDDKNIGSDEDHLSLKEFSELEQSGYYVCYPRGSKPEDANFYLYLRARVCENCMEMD

[3] = target: T1, HLA-PEPTIDE target G2: HLA-A*01:01_…, …; test: BLI; avid; apparent KD (bivalent)
[4] = target: T2, CD3 (reagent of the affinity …); test: BLI; avid; apparent KD (bivalent)
[5] = target: T1, HLA-PEPTIDE target G2: HLA-A*01:01_…, …; test: BLI; remark: listed apart in the source
[6] = target: T2, CD3 (reagent of the affinity …); test: BLI
[7] = target: T1, HLA-PEPTIDE target G2: HLA-A*01:01_…, …; test: BLI; apparent KD (bivalent), avid
[8] = target: T2, CD3 (reagent of the affinity …); test: BLI; apparent KD (bivalent), avid
[9] = target: T1, HLA-PEPTIDE target G2: HLA-A*01:01_…, …; test: BLI; remark: listed apart in the source
[10] = target: T2, CD3 (reagent of the affinity …); test: BLI
[11] = target: T1, HLA-PEPTIDE target G2: HLA-A*01:01_…, …; test: BLI; remark: listed apart in the source
[12] = target: T1, HLA-PEPTIDE target G2: HLA-A*01:01_…, …; test: BLI; apparent KD (bivalent), avid; remark: listed apart in the source
[13] = target: T1, HLA-PEPTIDE target G2: HLA-A*01:01_…, …; test: BLI; remark: listed apart in the source
[14] = target: T2, CD3 (reagent of the affinity …); test: BLI
[15] = target: T2, CD3 (reagent of the affinity …); test: BLI; IgG analyte, apparent KD (bivalent), avid
[16] = target: T2, CD3 (reagent of the affinity …); test: BLI
[17] = target: T2, CD3 (reagent of the affinity …); test: BLI; aCD3 IgG analyte
[18] = target: T2, CD3 (reagent of the affinity …); test: BLI; aCD3 IgG analyte, apparent KD (bivalent), avid
[19] = target: T2, CD3 (reagent of the affinity …); test: BLI; aCD3 IgG load
[20] = target: T1, HLA-PEPTIDE target G2: HLA-A*01:01_…, …; test: BLI; remark: listed apart in the source
[21] = target: T2, CD3 (reagent of the affinity …); test: BLI

B1: 6-G2(1H11)-αCD3 (bispecific antibody)
heavy: not shown
light: QAVVTQEPSLTVSPGGTVTLTCGSSTGAVTTSNYANWVQQKPGKSPRGLIGGTNKRAPGVPARFSGSLLGGKAALTISGAQPEDEADYYCALWYSNHWVFGGGTKLTVLRTVAAPSVFIFPPSDEQLKSGTASVVCLLNNFYPREAKVQWKVDNALQSGNSQESVTEQDSKDSTYSLSSTLTLSKADYEKHKVYACEVTHQGLSSPVTKSFNRGEC
Kd [1]: 215 nM | Kd [2]: 5.95 nM | Kd [3]: 4.53 nM | Kd [4]: 0.828 nM

B2: 5-G2(1H11)-αCD3 (bispecific antibody)
chain: not shown
heavy: QVQLVQSGAEVKKPGASVKVSCKASGYTFTNYYMHWVRQAPGQGLEWMGMINPSGGGTSYAQKFQGRVTMTRDTSTSTVYMELSSLRSEDTAVYYCARGNPWELRLDYWGQGTLVTVSSGGGGSGGGGSGGGGSGGGGSDIQMTQSPSSLSASVGDRVTITCQASQDISNYLNWYQQKPGKAPKLLIYAASSLQSGVPSRFSGSGSGTDFTLTISSLQPEDFATYYCQQYYSYPFTFGPGTKVDIKGGGGSGGGGSEVQLVESGGGLVQPGGSLRLSCAASGFTFSTYAMNWVRQAPGKGLEWVGRIRSKYNNYATYYADSVKGRFTISRDDSKNTLYLQMNSLRAEDTAVYYCVRHGNFGDSYVSWFAYWGQGTLVTVSSASTKGPSVFPLAPSSKSTSGGTAALGCLVKDYFPEPVTVSWNSGALTSGVHTFPAVLQSSGLYSLSSVVTVPSSSLGTQTYICNVNHKPSNTKVDKRVEPKSCDKTHTCPPCPAPELLGGPSVFLFPPKPKDTLMISRTPEVTCVVVDVSHEDPEVKFNWYVDGVEVHNAKTKPREEQYQSTYRVVSVLTVLHQDWLNGKEYKCKVSNKALPAPIEKTISKAKGQPREPQVCTLPPSREEMTKNQVSLSCAVKGFYPSDIAVEWESNGQPENNYKTTPPVLDSDGSFFLVSKLTVDKSRWQQGNVFSCSVMHEALHNRFTQKSLSLSPGK
light: B1 light
Kd [5]: 28.8 nM | Kd [6]: 20 nM

B3: 2-G2(1H11)-αCD3 (bispecific antibody)
heavy: not shown
light: B1 light
Kd [7]: 3.41 nM | Kd [8]: 0.696 nM | Kd [9]: 82.2 nM | Kd [10]: 6.02 nM

B4: 3-G2(1H11)-OKT3 (bispecific antibody)
chain: not shown
heavy: not shown
light: QIVLTQSPAIMSASPGEKVTMTCSASSSVSYMNWYQQKSGTSPKRWIYDTSKLASGVPAHFRGSGSGTSYSLTISGMEAEDAATYYCQQWSSNPFTFGSGTKLEINRTVAAPSVFIFPPSDEQLKSGTASVVCLLNNFYPREAKVQWKVDNALQSGNSQESVTEQDSKDSTYSLSSTLTLSKADYEKHKVYACEVTHQGLSSPVTKSFNRGEC
Kd [11]: 24.8 nM

B5: 4-G2(1H11)-αCD3 (bispecific antibody)
chain: not shown
heavy: B2 heavy
light: B1 light
Kd [12]: 2.95 nM | Kd [13]: 543 nM | Kd [14]: 11.6 nM

B6: hOKT3 IgG (antibody, V domains shown)
VH: QVQLVQSGAEVKKPGASVKVSCKASGYTFTRYTMHWVRQAPGQGLEWMGYINPSRGYTNYNQKFKDRVTLTTDKSSSTAYMELSSLRSEDTAVYYCARYYDDHYSLDYWGQGTLVTVSS
VL: DIQMTQSPSSLSASVGDRVTITCSASSSVSYMNWYQQKPGKAPKRLIYDTSKLASGVPSRFSGSGSGTDFTLTISSLQPEDFATYYCQQWSSNPFTFGQGTKLEIKR
Kd [15]: 8.44 nM | Kd [16]: 268 nM

B7: antibody designated αCD3, in IgG format (antibody, V domains shown)
VH: EVQLVESGGGLVQPGGSLRLSCAASGFTFSTYAMNWVRQAPGKGLEWVGRIRSKYNNYATYYADSVKGRFTISRDDSKNTLYLQMNSLRAEDTAVYYCVRHGNFGDSYVSWFAYWGQGTLVTVSS
VL: QAVVTQEPSLTVSPGGTVTLTCGSSTGAVTTSNYANWVQQKPGKSPRGLIGGTNKRAPGVPARFSGSLLGGKAALTISGAQPEDEADYYCALWYSNHWVFGGGTKLTVLR
Kd [17]: 144 nM | Kd [18]: < 0.001 nM | Kd [19]: 2.92 nM

B8: 3-G2(1H11)-hOKT3 (bispecific antibody)
chain: not shown
heavy: QVQLVQSGAEVKKPGASVKVSCKASGYTFTRYTMHWVRQAPGQGLEWMGYINPSRGYTNYNQKFKDRVTLTTDKSSSTAYMELSSLRSEDTAVYYCARYYDDHYSLDYWGQGTLVTVSSASTKGPSVFPLAPSSKSTSGGTAALGCLVKDYFPEPVTVSWNSGALTSGVHTFPAVLQSSGLYSLSSVVTVPSSSLGTQTYICNVNHKPSNTKVDKRVEPKSCDKTHTCPPCPAPELLGGPSVFLFPPKPKDTLMISRTPEVTCVVVDVSHEDPEVKFNWYVDGVEVHNAKTKPREEQYQSTYRVVSVLTVLHQDWLNGKEYKCKVSNKALPAPIEKTISKAKGQPREPQVCTLPPSREEMTKNQVSLSCAVKGFYPSDIAVEWESNGQPENNYKTTPPVLDSDGSFFLVSKLTVDKSRWQQGNVFSCSVMHEALHNRFTQKSLSLSPGK
light: DIQMTQSPSSLSASVGDRVTITCSASSSVSYMNWYQQKPGKAPKRLIYDTSKLASGVPSRFSGSGSGTDFTLTISSLQPEDFATYYCQQWSSNPFTFGQGTKLEIKRTVAAPSVFIFPPSDEQLKSGTASVVCLLNNFYPREAKVQWKVDNALQSGNSQESVTEQDSKDSTYSLSSTLTLSKADYEKHKVYACEVTHQGLSSPVTKSFNRGEC
Kd [20]: 421 nM | Kd [21]: 168 nM

B9: 3-OKT3-G2(1H11) (antibody)
chain 1: not shown
chain 2: not shown
chain 3: MDMRVPAQLLGLLLLWLPGARCQIVLTQSPAIMSASPGEKVTMTCSASSSVSYMNWYQQKSGTSPKRWIYDTSKLASGVPAHFRGSGSGTSYSLTISGMEAEDAATYYCQQWSSNPFTFGSGTKLEINRTVAAPSVFIFPPSDEQLKSGTASVVCLLNNFYPREAKVQWKVDNALQSGNSQESVTEQDSKDSTYSLSSTLTLSKADYEKHKVYACEVTHQGLSSPVTKSFNRGEC
Kd [11]: 23.8 nM
